The text below walks through data of patent US20040229213A1 (INSTITUT PASTEUR, published 2004).

The series concerns the molecule itself. Briefly: yeast two-hybrid two-by-two matrix, LacZ and HIS3 reporters.

B1: HCV core protein, full length (strain H) (other)
chain: MSTNPKPQRKTKRNTNRRPQDVKFPGGGQIVGGVYLLPRRGPRLGVRATRKTSERSQPRGRRQPIPKARRPEGRTWAQPGYPWPLYGNEGCGWAGWLLSPRGSRPSWGPTDPRRRSRNLGKVIDTLTCGFADLMGYIPLVGAPLGGAARALAHGVRVLEDGVNYATGNLPGCSFSIFLLALLSCLTVPASA
notes: mature; also called capsid protein; full-length capsid
Regarding B1, the binding result is “no binding”.
